Results: publication doi:10.1101/2021.01.18.427180 (bioRxiv, 2021)

T1: recombinant human CD14 (human, UniProt P08571 20-345)
T1 sequence: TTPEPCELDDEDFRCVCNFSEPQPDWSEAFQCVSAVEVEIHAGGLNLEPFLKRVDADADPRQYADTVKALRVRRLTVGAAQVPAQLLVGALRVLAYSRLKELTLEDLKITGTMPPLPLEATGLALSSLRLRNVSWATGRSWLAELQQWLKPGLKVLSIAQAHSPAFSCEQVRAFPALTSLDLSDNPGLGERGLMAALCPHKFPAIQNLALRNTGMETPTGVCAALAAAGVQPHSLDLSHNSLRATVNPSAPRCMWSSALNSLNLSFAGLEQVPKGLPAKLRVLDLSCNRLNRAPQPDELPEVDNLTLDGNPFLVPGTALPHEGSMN


Key:
recombinant human TLR2 = recombinant human TLR2 (human, UniProt O60603); experiment: flow cytometry of receptor-conjugated beads
Sequence of recombinant human TLR2 (O60603 21-588): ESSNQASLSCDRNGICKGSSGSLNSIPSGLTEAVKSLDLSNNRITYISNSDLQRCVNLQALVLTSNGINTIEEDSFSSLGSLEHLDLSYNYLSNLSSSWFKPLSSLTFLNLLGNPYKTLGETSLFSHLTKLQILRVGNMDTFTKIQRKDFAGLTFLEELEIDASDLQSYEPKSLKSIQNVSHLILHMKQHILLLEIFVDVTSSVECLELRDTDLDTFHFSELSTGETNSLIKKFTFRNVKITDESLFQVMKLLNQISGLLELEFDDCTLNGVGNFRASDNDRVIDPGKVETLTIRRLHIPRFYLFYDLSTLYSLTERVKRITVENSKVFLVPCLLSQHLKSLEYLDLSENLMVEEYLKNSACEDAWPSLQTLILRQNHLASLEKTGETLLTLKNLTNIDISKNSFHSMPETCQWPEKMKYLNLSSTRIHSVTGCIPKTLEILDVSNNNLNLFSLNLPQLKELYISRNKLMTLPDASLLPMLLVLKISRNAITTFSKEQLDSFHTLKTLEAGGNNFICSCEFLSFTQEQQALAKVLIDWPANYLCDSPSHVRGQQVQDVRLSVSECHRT

recombinant human CD14 = biological target: T1, recombinant human CD14; experiment: flow cytometry of receptor-conjugated beads

Binder | binding result (recombinant human TLR2) | binding result (recombinant human CD14)
GGLSSVGGGS [KAMP-10] | binds | binds
RAIGGGLSSVGGGSSTIK [KAMP-18C] | binds | binds
